Assay results published in IntAct's records for PubMed 25770211.

B1: 5-hydroxytryptamine receptor 2C (Homo sapiens), P28335 (parent)
chain: MVNLRNAVHSFLVHLIGLLVWQSDISVSPVAAIVTDIFNTSDGGRFKFPDGVQNWPALSIVIIIIMTIGGNILVIMAVSMEKKLHNATNYFLMSLAIADMLVGLLVMPLSLLAILYDYVWPLPRYLCPVWISLDVLFSTASIMHLCAISLDRYVAIRNPIEHSRFNSRTKAIMKIAIVWAISIGVSVPIPVIGLRDEEKVFVNNTTCVLNDPNFVLIGSFVAFFIPLTIMVITYCLTIYVLRRQALMLLHGHTEEPPGLSLDFLKCCKRNTAEEENSANPNQDQNARRRKKKERRPRGTMQAINNERKASKVLGIVFFVFLIMWCPFFITNILSVLCEKSCNQKLMEKLLNVFVWIGYVCSGINPLVYTLFNKIYRRAFSNYLRCNYKVEKKPPVRQIPRVAATALSGRELNVNIYRHTNEPVIEKASDNEPGIEMQVENLELPVNPSSVVSERISSV
partner: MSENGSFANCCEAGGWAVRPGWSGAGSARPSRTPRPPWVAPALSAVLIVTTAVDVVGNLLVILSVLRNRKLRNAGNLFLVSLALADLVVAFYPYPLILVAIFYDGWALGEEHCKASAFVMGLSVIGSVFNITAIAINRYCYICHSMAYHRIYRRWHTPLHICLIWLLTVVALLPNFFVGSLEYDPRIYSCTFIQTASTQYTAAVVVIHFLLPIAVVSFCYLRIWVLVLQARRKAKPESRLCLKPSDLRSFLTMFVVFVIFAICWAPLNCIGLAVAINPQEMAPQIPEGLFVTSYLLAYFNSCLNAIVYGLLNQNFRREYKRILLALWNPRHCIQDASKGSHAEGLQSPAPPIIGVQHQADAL

Variants of: B1
Details: with mtr1b_human MTNR1B

Variant	effect of a mutation on the interaction
S138N	with no effect
